How the values were obtained:
[1] = molecular target: Human MLH1 C-terminal domain (amino acids 486 to 756) (human) (UniProt P40692); assay: ITC
[2] = molecular target: recombinant MutLα (MLH1-PMS2) (human, UniProt P40692;P54278); assay: pull-down
recombinant MutLα (MLH1-PMS2), sequence (P40692 whole entry, chain 1 of 2): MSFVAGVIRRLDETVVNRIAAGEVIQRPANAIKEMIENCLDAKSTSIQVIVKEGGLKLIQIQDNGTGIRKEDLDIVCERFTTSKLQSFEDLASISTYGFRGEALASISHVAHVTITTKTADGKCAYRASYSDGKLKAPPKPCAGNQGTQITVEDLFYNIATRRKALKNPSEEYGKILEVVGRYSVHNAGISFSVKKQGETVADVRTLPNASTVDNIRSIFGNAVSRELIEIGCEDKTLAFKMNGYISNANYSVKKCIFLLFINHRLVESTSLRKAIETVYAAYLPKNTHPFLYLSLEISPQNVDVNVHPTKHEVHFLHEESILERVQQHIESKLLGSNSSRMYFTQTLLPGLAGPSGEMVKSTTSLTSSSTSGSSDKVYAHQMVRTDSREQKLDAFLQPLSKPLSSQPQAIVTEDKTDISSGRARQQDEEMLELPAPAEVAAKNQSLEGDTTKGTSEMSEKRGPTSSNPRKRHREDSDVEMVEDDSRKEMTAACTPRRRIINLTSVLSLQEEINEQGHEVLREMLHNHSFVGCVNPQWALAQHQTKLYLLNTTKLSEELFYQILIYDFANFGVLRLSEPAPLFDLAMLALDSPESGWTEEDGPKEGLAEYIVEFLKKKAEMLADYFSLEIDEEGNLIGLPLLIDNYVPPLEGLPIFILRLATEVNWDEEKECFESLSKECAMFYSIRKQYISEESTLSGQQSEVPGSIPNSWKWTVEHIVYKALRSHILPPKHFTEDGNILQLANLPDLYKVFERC
recombinant MutLα (MLH1-PMS2), sequence (P54278 whole entry, chain 2 of 2): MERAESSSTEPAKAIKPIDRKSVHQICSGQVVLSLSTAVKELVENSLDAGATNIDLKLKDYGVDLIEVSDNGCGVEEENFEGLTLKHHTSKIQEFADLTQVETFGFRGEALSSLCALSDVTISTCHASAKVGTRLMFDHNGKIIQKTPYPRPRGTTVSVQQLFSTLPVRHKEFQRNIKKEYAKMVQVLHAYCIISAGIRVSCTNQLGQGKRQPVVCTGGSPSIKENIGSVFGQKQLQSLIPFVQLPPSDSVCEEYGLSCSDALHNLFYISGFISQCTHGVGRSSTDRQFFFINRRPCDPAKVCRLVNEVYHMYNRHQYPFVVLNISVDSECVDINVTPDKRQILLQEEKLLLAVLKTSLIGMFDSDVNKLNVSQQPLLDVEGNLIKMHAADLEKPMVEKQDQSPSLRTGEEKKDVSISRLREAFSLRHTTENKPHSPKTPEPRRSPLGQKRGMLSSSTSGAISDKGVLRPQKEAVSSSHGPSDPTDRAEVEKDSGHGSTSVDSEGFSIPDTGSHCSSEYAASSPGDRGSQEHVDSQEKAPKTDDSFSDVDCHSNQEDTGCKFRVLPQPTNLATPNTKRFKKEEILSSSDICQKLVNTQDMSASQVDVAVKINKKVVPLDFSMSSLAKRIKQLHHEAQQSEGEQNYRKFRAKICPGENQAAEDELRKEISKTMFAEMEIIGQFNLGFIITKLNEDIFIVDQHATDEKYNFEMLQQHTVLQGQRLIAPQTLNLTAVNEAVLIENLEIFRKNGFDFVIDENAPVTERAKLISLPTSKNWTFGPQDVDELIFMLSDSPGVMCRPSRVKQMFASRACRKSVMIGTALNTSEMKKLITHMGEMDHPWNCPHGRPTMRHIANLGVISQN

Human MLH1 C-terminal domain (amino acids 486 to 756) (human), sequence (P40692 486-756): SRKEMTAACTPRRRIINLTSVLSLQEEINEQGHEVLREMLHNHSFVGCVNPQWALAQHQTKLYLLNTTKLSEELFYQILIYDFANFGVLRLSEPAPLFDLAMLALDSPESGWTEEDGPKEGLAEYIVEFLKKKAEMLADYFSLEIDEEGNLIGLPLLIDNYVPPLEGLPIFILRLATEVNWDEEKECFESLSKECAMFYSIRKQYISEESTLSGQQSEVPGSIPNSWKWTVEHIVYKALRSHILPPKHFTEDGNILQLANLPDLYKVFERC

Row | Kd [1] | binding result [2] | Molecule
1 | 2.8 µM |  | FAN1 MIP 8-mer peptide (wt)
2 | 0.07 µM |  | FAN1-derived 42-mer peptide containing MIP and MIM (wt)
3 | 3.2 µM |  | FAN1 MIM 12-mer peptide (wt)
4 |  | binds | GST-FAN1 (amino acids 118 to 177) (domain or fragment) KREVKQKISPYFKSNDVVCKNQDELRNRSVKVICLGSLASKLSRKYVKAKKSIDKDEEFA

Source: publication PMC8324060 (Science Advances, 2021)
